Broadly, the Kd is the concentration at which binding is half-saturated. A higher Kd goes with weaker binding.

Common to all, as to assay: SPR; surface plasmon resonance; who was immobilised is not told in what was shown; mean +/- 95% CI, n=3
A general note: SPR reads the build-up and loss of mass on a sensor chip optically.

The target in assay [1] is TACI-Fc (extracellular domain of the BLyS receptor TACI fused to the Fc region of human IgG1) (UniProt O14836).
Another assay has as its target BAFFR-Fc (UniProt Q96RJ3).
Sequence of UniProt Q96RJ3 (Q96RJ3 1-78): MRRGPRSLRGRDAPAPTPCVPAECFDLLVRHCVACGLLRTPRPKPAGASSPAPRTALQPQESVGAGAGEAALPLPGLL
The target of the next assay is BCMA-Fc (UniProt Q02223).
Sequence of UniProt Q02223 (Q02223 1-54): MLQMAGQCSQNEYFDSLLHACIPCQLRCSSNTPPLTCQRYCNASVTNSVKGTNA

Sequence of UniProt O14836 (O14836 1-165): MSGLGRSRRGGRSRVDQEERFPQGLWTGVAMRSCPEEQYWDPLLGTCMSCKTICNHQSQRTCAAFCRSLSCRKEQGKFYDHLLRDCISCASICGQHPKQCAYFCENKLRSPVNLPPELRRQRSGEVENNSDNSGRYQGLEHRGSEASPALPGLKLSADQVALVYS

With BLyS-gelonin fusion toxin, the Kd in assay [1] was found to be 0.8 nM; with BAFFR-Fc, 2.6 nM; with BCMA-Fc, 6.2 nM.

Source of the values: paper PMC3467252.
